In this series the test system is HNF-4alpha (transfected expression vector). Nature of the series: cell_activity. The settings on record: COS-7 cotransfection, no added fatty acids.

In turn, “one to three C3P copies enhancing TK promoter CAT reporter” gave an activity (fold activation) of 7.
